For one substance, stoichiometry N results are on record in paper PMC4939959.

The target of this assay is Prototype foamy virus (PFV) Env glycoprotein, wild type, fully processed (gp18^LP, gp80^SU, gp48^TM), trimeric spike in the viral membrane (Prototype foamy virus (PFV)) (UniProt P14351). Put plainly: cryo-electron tomography with subtomogram averaging; Env in situ in the membrane of purified virus particles (wt fixed with 4% paraformaldehyde, iNAB, iFuse), plunge-frozen; single spike, 3-fold symmetry seen in the asymmetric average and then enforced; 3.2, 2.9 and 2.8 nm at FSC = 0.5; step: Env protomers in the trimeric spike.

By stoichiometry N is commonly meant a count of units in the complex or per binding partner. “Prototype foamy virus (PFV) Env glycoprotein, wild type, fully processed (gp18^LP, gp80^SU, gp48^TM), trimeric spike in the viral membrane (from UniProt P14351 1-126; P14351 1-126; P14351 1-126) (complex)”: the stoichiometry N came to 3.
